Source: paper PMC3488048 (The Journal of Biological Chemistry, 2012)
Where no end group is shown, it is not given here.

Molecular target: Kindlin-3 (full-length, C-terminal His6 tag removed, for NMR) (mouse, UniProt Q8K1B8 1-665)
Assay: NMR titration

Chain of Kindlin-3 (full-length, C-terminal His6 tag removed, for NMR) (Q8K1B8 whole entry): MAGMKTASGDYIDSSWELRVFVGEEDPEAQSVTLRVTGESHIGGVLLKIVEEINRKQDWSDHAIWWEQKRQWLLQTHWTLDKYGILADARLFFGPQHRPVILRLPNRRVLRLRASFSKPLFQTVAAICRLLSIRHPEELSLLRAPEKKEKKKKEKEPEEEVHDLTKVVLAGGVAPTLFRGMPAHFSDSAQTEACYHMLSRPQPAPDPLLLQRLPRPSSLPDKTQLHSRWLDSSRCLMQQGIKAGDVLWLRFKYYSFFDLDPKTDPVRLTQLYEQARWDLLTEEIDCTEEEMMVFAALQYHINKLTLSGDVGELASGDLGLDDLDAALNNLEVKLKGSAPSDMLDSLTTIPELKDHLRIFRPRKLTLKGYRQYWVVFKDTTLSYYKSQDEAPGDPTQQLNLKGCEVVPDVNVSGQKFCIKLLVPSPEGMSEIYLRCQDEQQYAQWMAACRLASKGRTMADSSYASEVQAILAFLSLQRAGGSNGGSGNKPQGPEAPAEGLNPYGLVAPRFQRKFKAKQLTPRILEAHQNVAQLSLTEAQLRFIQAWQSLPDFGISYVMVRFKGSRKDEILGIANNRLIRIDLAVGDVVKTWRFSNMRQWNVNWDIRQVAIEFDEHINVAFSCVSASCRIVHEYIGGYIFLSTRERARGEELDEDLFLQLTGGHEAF

Binder	Kd
KLLMIIHDRREFAKFEKEKMNAKWDTQENPIYKSPINNFKNPNYGRKAGL (domain or fragment, UniProt P05556-5 752-801, looked up, also: uniformly 15N-labelled) [integrin β1D cytoplasmic tail]	~50 µM
KLLMIIHDRREFAKFEKEKMNAKWDTGENPIYKSAVTTVVNPKYEGK (domain or fragment, UniProt P05556-1 752-798, looked up, also: uniformly 15N-labelled) [integrin β1A cytoplasmic tail]	~50 µM
